According to paper PMC12417749:
Read-outs that look alike come from different tables or passages of the source.

Key:
Assay in all cases: SPR
[1] = molecular target: afucosylated Trastuzumab (TZM‐AF)
[2] = molecular target: galactosylated Trastuzumab (TZM‐GT)
[3] = molecular target: afucosylated Trastuzumab (TZM‐AF); remark: listed apart in the source
[4] = molecular target: galactosylated Trastuzumab (TZM‐GT); remark: listed apart in the source

| Kd [1] | SPR signal at 300 nM receptor [1] | Kd [2] | SPR signal at 300 nM receptor [2] | Kd [3] | Kd [4] | Substance |
| --- | --- | --- | --- | --- | --- | --- |
| 180 nM | 40 RU | 260 nM | 40 RU | 170 nM | 220 nM | FcγRIIB (from UniProt P31994) (receptor) |
| 250 nM | 40 RU | 180 nM | 40 RU | 200 nM | 170 nM | FcγRIIA (from UniProt P12318) (receptor) |
